Drawing on article PMC6359974, this text covers percent of UNC-45A bound to MTs for one molecule.

For this test, the target named is polymerized MTs of COV362 lysate (taxol-treated) (human (endogenous in COV362)) (UniProt P68363). Description: co-sedimentation.
Chain of UniProt P68363 (P68363 whole entry, chain 1 of 2): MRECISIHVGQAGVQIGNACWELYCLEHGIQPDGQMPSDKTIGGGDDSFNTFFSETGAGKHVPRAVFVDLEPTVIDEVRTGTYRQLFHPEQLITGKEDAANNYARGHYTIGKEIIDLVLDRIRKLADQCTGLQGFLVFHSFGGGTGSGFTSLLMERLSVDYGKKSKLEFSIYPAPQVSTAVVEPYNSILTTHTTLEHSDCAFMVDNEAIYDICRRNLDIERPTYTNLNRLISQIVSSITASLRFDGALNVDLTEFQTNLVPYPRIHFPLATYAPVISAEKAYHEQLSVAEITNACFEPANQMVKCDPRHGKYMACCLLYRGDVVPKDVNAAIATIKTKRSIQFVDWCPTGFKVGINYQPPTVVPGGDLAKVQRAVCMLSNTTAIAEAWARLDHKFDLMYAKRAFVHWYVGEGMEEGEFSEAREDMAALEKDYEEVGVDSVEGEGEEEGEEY
Chain of UniProt P68363 (P07437 whole entry, chain 2 of 2, further chain): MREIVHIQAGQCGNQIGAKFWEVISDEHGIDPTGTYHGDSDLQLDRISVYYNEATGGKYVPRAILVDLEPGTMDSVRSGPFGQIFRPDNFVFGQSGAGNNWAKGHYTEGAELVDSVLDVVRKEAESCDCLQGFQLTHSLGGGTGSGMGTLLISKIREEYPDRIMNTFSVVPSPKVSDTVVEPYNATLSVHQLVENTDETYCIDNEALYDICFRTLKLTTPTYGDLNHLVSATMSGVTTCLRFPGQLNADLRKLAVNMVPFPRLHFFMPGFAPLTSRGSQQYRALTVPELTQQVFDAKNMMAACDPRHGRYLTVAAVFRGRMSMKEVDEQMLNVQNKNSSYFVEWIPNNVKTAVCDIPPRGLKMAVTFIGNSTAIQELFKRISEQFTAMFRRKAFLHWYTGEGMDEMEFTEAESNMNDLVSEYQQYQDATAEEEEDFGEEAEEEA

B1: UNC-45A (endogenous, COV362 cells) (natural protein)
chain: MTVSGPGTPEPRPATPGASSVEQLRKEGNELFKCGDYGGALAAYTQALGLDATPQDQAVLHRNRAACHLKLEDYDKAETEASKAIEKDGGDVKALYRRSQALEKLGRLDQAVLDLQRCVSLEPKNKVFQEALRNIGGQIQEKVRYMSSTDAKVEQMFQILLDPEEKGTEKKQKASQNLVVLAREDAGAEKIFRSNGVQLLQRLLDMGETDLMLAALRTLVGICSEHQSRTVATLSILGTRRVVSILGVESQAVSLAACHLLQVMFDALKEGVKKGFRGKEGAIIVDPARELKVLISNLLDLLTEVGVSGQGRDNALTLLIKAVPRKSLKDPNNSLTLWVIDQGLKKILEVGGSLQDPPGELAVTANSRMSASILLSKLFDDLKCDAERENFHRLCENYIKSWFEGQGLAGKLRAIQTVSCLLQGPCDAGNRALELSGVMESVIALCASEQEEEQLVAVEALIHAAGKAKRASFITANGVSLLKDLYKCSEKDSIRIRALVGLCKLGSAGGTDFSMKQFAEGSTLKLAKQCRKWLCNDQIDAGTRRWAVEGLAYLTFDADVKEEFVEDAAALKALFQLSRLEERSVLFAVASALVNCTNSYDYEEPDPKMVELAKYAKQHVPEQHPKDKPSFVRARVKKLLAAGVVSAMVCMVKTESPVLTSSCRELLSRVFLALVEEVEDRGTVVAQGGGRALIPLALEGTDVGQTKAAQALAKLTITSNPEMTFPGERIYEVVRPLVSLLHLNCSGLQNFEALMALTNLAGISERLRQKILKEKAVPMIEGYMFEEHEMIRRAATECMCNLAMSKEVQDLFEAQGNDRLKLLVLYSGEDDELLQRAAAGGLAMLTSMRPTLCSRIPQVTTHWLEILQALLLSSNQELQHRGAVVVLNMVEASREIASTLMESEMMEILSVLAKGDHSPVTRAAAACLDKAVEYGLIQPNQDGE
In turn, B1 came in with a percent of UNC-45A bound to MTs of 100%.
